The chains are these.
B1: Hairpin Ribozyme (parent)
chain: GUCCUCUUUCACGUGCGCGUGAAAGAGAGAAGUGAACCAGAGAAACACACGUUGUGGUAUAUUACCUGGUA

The series covers variants of B1. Nature of the series: self-cleavage, relative activity (ratio to wild type); higher = more cleavage; co-transcriptional.
Consider A24C U33A, for which the self-cleavage was found to be 0.2.

As to C6A G34U, the self-cleavage is 1.

A39U A41G: the self-cleavage stood at 0.644.

On to G13U C66A, for which the self-cleavage amounted to 0.176.

Turning to A30U G57U, the self-cleavage came out at 0.175.

As for A26G G54U, the self-cleavage was 0.349.

In the case of G1A U55C, the self-cleavage was determined as 0.243.

For the variant G1A U55A, the self-cleavage came out at 0.229.

For the variant U60A C66G, the self-cleavage is 0.191.

In the case of C18U G69C, the self-cleavage worked out at 0.334.

For the variant U8C G17C, the self-cleavage was 0.404.

On to G51C A61C, for which the self-cleavage came out at 0.0996.

In the case of G19A G69A, the self-cleavage stood at 0.347.

G40U U63C: the self-cleavage is 0.092.

G40A A49G: the self-cleavage was found to be 0.182.

As for G15C G21A, the self-cleavage was determined as 0.76.

In the case of U9G G51C, the self-cleavage was found to be 0.614.

For the variant G19C C48G, the self-cleavage turned out to be 0.165.

On to A41G U70C, for which the self-cleavage was found to be 0.981.

U7G A30C: the self-cleavage worked out at 0.0485.

As to A49G G68C, the self-cleavage was found to be 0.307.

As for G40U U62G, the self-cleavage came out at 0.111.

With C46U C48A, the self-cleavage is 0.203.

Take G19C U60A: the self-cleavage amounted to 0.9.

As to G27C U60C, the self-cleavage was determined as 0.333.

As to U55G A64C, the self-cleavage was determined as 0.153.

Regarding G25A C48U, the self-cleavage was 0.135.

G19U G54A: the self-cleavage came to 0.468.

Turning to G40U G68A, the self-cleavage is 0.134.

Consider G1U G15C, for which the self-cleavage amounted to 0.0726.

Consider U2G G25A, for which the self-cleavage was 0.224.

For the variant G34A C37G, the self-cleavage came to 0.519.

As to C38U U58C, the self-cleavage worked out at 0.544.

Regarding U14A C18U, the self-cleavage was found to be 0.924.

As for G25C A43C, the self-cleavage worked out at 0.0652.

For U20A A35G, the self-cleavage was found to be 0.815.

On to C6G U58A, for which the self-cleavage came to 0.29.

Turning to G56A U62G, the self-cleavage was found to be 0.293.

In the case of U60C A61G, the self-cleavage is 0.228.

For the variant A49C C50A, the self-cleavage was found to be 0.139.

For G25U U53A, the self-cleavage came to 0.647.

As for G40C G51U, the self-cleavage was 0.131.

For A43C G68C, the self-cleavage turned out to be 0.

As to A24U G42C, the self-cleavage worked out at 0.394.

Turning to A26U A41U, the self-cleavage was found to be 0.989.

With G32U G40C, the self-cleavage is 0.0975.

As to U8C G69A, the self-cleavage stood at 0.327.

Regarding G54U U55G, the self-cleavage was 0.399.

Turning to U53G U63G, the self-cleavage came to 0.156.

With C4U G40U, the self-cleavage was 0.0478.

For G19U U20A, the self-cleavage is 0.825.

In the case of G27C G29U, the self-cleavage is 0.179.

Consider U20G G57U, for which the self-cleavage was 0.212.

For G17U U70G, the self-cleavage worked out at 0.739.

In the case of A23C A28C, the self-cleavage was 0.349.

On to A47U G51A, for which the self-cleavage was determined as 0.157.

Turning to U7G U70A, the self-cleavage worked out at 0.673.

As for A30C A61G, the self-cleavage was found to be 0.12.

Take U20G G42A: the self-cleavage came to 0.266.

Consider G21U G51U, for which the self-cleavage was determined as 0.992.

As for G13U A71C, the self-cleavage was found to be 1.22.

Consider U2C U58A, for which the self-cleavage was 0.235.

In the case of A24G U62C, the self-cleavage turned out to be 0.257.

For U33G U60C, the self-cleavage amounted to 0.195.

Consider G69A U70G, for which the self-cleavage amounted to 0.325.

As to A30U G51C, the self-cleavage worked out at 0.164.

Turning to C6G U63A, the self-cleavage was found to be 0.125.

Regarding G1A A41U, the self-cleavage amounted to 0.225.

Regarding U7C A45U, the self-cleavage stood at 0.231.

With A11U G34C, the self-cleavage is 1.43.

As for G1C U20G, the self-cleavage was found to be 0.0342.

For A24C U55C, the self-cleavage worked out at 0.305.

Turning to C10G G25C, the self-cleavage was determined as 0.358.

Turning to U9A U55A, the self-cleavage amounted to 0.225.

In the case of G1A G51C, the self-cleavage stood at 0.0527.

As for A11C C12A, the self-cleavage is 0.636.

For the variant U9A C10G, the self-cleavage was 0.519.

As to U20G A23U, the self-cleavage is 0.712.

Regarding U62G U63C, the self-cleavage came out at 0.243.

With U20A G40C, the self-cleavage is 0.0677.

Turning to A28G U70G, the self-cleavage worked out at 0.978.

As to A30G A71C, the self-cleavage turned out to be 0.217.

In the case of U8C A30U, the self-cleavage amounted to 0.0797.

In the case of A44C U53A, the self-cleavage came to 0.186.

Turning to A31C C38G, the self-cleavage was 0.196.

As for U8C A59G, the self-cleavage was 0.203.

Take A22G A24C: the self-cleavage was 0.705.

With A35G G56C, the self-cleavage is 0.0996.

With A23U C66U, the self-cleavage stood at 0.545.

As for A24U G32C, the self-cleavage was determined as 0.114.

As for C46G G69A, the self-cleavage was 0.179.

Regarding C46G G69C, the self-cleavage was 0.123.

For the variant G29A U60G, the self-cleavage was found to be 0.0375.

With G17U A41C, the self-cleavage worked out at 0.997.

U5C C16A: the self-cleavage was found to be 0.693.

As to C18G A59U, the self-cleavage turned out to be 0.239.

For the variant G29U A64C, the self-cleavage was determined as 0.142.

Take U5A A41G: the self-cleavage is 0.162.

On to C3G C46G, for which the self-cleavage came out at 0.0681.

On to U5G G15U, for which the self-cleavage was found to be 0.431.

A23C A36U: the self-cleavage came to 0.475.

Consider G27A G56U, for which the self-cleavage was 0.156.

On to G27A G56C, for which the self-cleavage is 0.101.

Regarding G32C U62A, the self-cleavage was determined as 0.234.

Take G25U U63G: the self-cleavage came to 0.174.

In the case of A26U A59C, the self-cleavage was 0.137.

As for U8G C16G, the self-cleavage worked out at 0.395.

With A28U C48G, the self-cleavage was 0.195.

For G13C U63A, the self-cleavage came out at 0.173.

As to C12U C48A, the self-cleavage worked out at 0.107.

In the case of U52G U67G, the self-cleavage came out at 0.156.

Turning to U55C A64C, the self-cleavage stood at 0.102.

For A36G C66U, the self-cleavage was 0.482.

In the case of G15U C38G, the self-cleavage came out at 0.149.

Regarding G56U A61G, the self-cleavage was 0.178.

With U33C U58A, the self-cleavage turned out to be 0.0907.

For the variant A23G A35U, the self-cleavage worked out at 0.626.

For G29U G51A, the self-cleavage came to 0.139.

On to G54A, for which the self-cleavage stood at 0.583.

Regarding A47C U67C, the self-cleavage is 0.148.

In the case of C66U G69A, the self-cleavage stood at 0.216.

As for C12A C66G, the self-cleavage turned out to be 0.208.

As to A30G A43G, the self-cleavage amounted to 0.0977.

Consider A45C G51C, for which the self-cleavage is 0.0857.

For the variant G51A U67A, the self-cleavage turned out to be 0.291.

U20G A71G: the self-cleavage was determined as 0.971.

In the case of U62G G68U, the self-cleavage was determined as 0.257.

As to U5G A71U, the self-cleavage worked out at 0.306.

As to G1C A43G, the self-cleavage is 0.113.

Consider A35U U52A, for which the self-cleavage turned out to be 0.715.

As for U5G U55C, the self-cleavage was 0.121.

Turning to C16A G51U, the self-cleavage came out at 0.861.

Consider A22C A26U, for which the self-cleavage turned out to be 0.429.

Consider C10U A30G, for which the self-cleavage came to 0.135.

Regarding C4U G29C, the self-cleavage came to 0.108.

Turning to C4U G56U, the self-cleavage came out at 0.126.

As to A44C C46G, the self-cleavage came to 0.0995.

On to A35G U67C, for which the self-cleavage was 0.0903.

For the variant C10U A45G, the self-cleavage was 0.0999.

Turning to G21U A35C, the self-cleavage stood at 0.841.

C16A U33A: the self-cleavage is 0.17.

As to C18U G57A, the self-cleavage was 0.188.

Consider C12G A44C, for which the self-cleavage was found to be 0.202.

Consider U62A G69U, for which the self-cleavage came out at 0.04.

Turning to U9A U20G, the self-cleavage was found to be 0.583.

Consider A39U G51U, for which the self-cleavage stood at 0.632.

For the variant C16G C66A, the self-cleavage is 0.197.

Turning to A36C C46U, the self-cleavage turned out to be 0.15.

On to G25C C37A, for which the self-cleavage came out at 0.281.

On to U52C U60A, for which the self-cleavage is 1.14.

Take U33G A47U: the self-cleavage was determined as 0.105.

A44U A64G: the self-cleavage came out at 0.202.

For the variant G40A U70G, the self-cleavage came out at 0.182.

As to G15U A47U, the self-cleavage came to 0.215.

As to G27C G40A, the self-cleavage came to 0.0679.

A49G U70G: the self-cleavage is 0.453.

In the case of A49G U70C, the self-cleavage amounted to 0.262.

With A28U G34U, the self-cleavage was determined as 1.41.

With U60A C65A, the self-cleavage was found to be 0.807.

In the case of A22C G57A, the self-cleavage amounted to 0.119.

For the variant U58A A61U, the self-cleavage was determined as 0.216.

As to G27U A59U, the self-cleavage was found to be 0.146.

For C16U G54U, the self-cleavage turned out to be 0.82.

Consider G19A A30C, for which the self-cleavage stood at 0.146.

On to C10U G19U, for which the self-cleavage was 0.672.

In the case of U9A G21A, the self-cleavage came to 0.573.

With G1U A22G, the self-cleavage amounted to 0.101.

Source of the values: the RNAGym collection of RNA variant scans (doi:10.7554/elife.80360).
